For nine molecules, EC50 and Kd results are on record in patent US20230357395A1 (published 2023).

One test has as its target T1, NKp30 on KHYG-1 NK cells (human, UniProt O14931 19-201).
T1 chain: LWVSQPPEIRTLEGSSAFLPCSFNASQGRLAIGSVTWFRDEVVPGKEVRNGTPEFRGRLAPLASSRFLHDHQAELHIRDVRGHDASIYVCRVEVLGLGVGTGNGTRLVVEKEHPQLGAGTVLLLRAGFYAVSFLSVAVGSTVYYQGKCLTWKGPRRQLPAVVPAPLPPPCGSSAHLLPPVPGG
Kind of test: FACS cell binding.

Test [1] has as its target T2, TRBC1 on TRBC1+ Jurkat cells (human, UniProt P01850 1-176).
T2 chain: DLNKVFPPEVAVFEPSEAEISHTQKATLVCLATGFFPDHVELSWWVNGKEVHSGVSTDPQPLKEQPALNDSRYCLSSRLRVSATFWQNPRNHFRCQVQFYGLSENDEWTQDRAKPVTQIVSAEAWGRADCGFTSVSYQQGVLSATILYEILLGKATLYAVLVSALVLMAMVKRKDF
Kind of test: FACS cell binding.

Test [2] deals with T3, human TRBC1 (hTRBC1), construct BIM0444 (human, UniProt P01850 1-129).
T3 chain: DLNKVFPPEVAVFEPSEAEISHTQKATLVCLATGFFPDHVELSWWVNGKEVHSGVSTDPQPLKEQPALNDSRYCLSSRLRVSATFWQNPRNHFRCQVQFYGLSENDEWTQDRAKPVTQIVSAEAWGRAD
Kind of test: Octet BLI. Background: In BLI a coated tip is dipped into the sample, and binding shifts an interference pattern.

Residue numbers refer to the chain shown, from its start. Numbers in names are those of the source.

For orientation: EC50 means the concentration at which the effect is half-maximal. Read a high EC50 as weaker potency. The term Kd denotes the equilibrium constant for the complex coming apart. Read a low Kd as higher affinity.

B1: BJM1079 (BJM0411 Parental) (antibody, V domains shown)
VH: EIQLLESGGGLVQPGGSLRLSCAVSGFSITTTGYHWNWVRQAPGKGLEWVGYIYSSGSTSYNPSLKSRFTISRDTSKNTFYLQMNSLRAEDTAVYYCARGDWHYFDYWGQGTMVTVSS
VL: DSVTTQSPLSLPVTLGQPASISCSGEKLSDKYVHWYQQRPGQSPRMLIYENDRRPSGVPDRFSGSNSGNDATLKISRVEAEDVGVYFCQFWDSTNSAVFGGGTKVEIK
Consider B1, for which, in the test with NKp30 on KHYG-1 NK cells, the 50% effective concentration (EC50) is 5.36 nM.

B2: BJM1078 (BJM0407 Parental) (antibody, V domains shown)
VH: B1 VH
VL: SSETTQPPSVSVSPGQTASITCSGEKLSDKYVHWYQQKPGQSPVMVIYENDRRPSGIPERFSGSNSGNTATLTISGTQAMDEADYFCQFWDSTNSAVFGGGTQLTVL
For B2, in the test with NKp30 on KHYG-1 NK cells, the EC50 amounted to 5.2 nM.

B3: BJM1042 (anti-TRBC1/NKp30 bispecific antibody, N297A) (bispecific antibody)
heavy: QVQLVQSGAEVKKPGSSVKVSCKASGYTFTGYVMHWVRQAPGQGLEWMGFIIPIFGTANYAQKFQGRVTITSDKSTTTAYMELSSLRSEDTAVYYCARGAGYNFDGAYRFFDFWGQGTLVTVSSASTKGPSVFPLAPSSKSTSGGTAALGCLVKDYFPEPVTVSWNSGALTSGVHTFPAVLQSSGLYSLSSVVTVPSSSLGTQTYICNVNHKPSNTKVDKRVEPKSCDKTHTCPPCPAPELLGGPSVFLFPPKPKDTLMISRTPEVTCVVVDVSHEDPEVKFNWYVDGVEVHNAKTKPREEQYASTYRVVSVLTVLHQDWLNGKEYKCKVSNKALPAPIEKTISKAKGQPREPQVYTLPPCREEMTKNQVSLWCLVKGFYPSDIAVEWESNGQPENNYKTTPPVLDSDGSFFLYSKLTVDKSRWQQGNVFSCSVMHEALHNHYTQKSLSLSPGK
light: DVVMTQSPLSLPVTLGQPASISCRSSQRLVHSNGNTYLHWYQQRPGQSPRLLIYRVSNRFPGVPDRFSGSGSGTDFTLKISRVEAEDVGVYFCSQSTHVPYTFGGGTKVEIKRTVAAPSVFIFPPSDEQLKSGTASVVCLLNNFYPREAKVQWKVDNALQSGNSQESVTEQDSKDSTYSLSSTLTLSKADYEKHKVYACEVTHQGLSSPVTKSFNRGEC
scFv: EIQLLESGGGLVQPGGSLRLSCAVSGFSITTTGYHWNWVRQAPGKGLEWVGYIYSSGSTSYNPSLKSRFTISRDTSKNTFYLQMNSLRAEDTAVYYCARGDWHYFDYWGQGTMVTVSSGGGGSGGGGSGGGGSGGGGSDSVTTQSPLSLPVTLGQPASISCSGEKLSDKYVHWYQQRPGQSPRMLIYENDRRPSGVPDRFSGSNSGNDATLKISRVEAEDVGVYFCQFWDSTNSAVFGGGTKVEIKDKTHTCPPCPAPELLGGPSVFLFPPKPKDTLMISRTPEVTCVVVDVSHEDPEVKFNWYVDGVEVHNAKTKPREEQYASTYRVVSVLTVLHQDWLNGKEYKCKVSNKALPAPIEKTISKAKGQPREPQVCTLPPSREEMTKNQVSLSCAVKGFYPSDIAVEWESNGQPENNYKTTPPVLDSDGSFFLVSKLTVDKSRWQQGNVFSCSVMHEALHNHYTQKSLSLSPGK
With B3, the EC50 with NKp30 on KHYG-1 NK cells came to 9.48 nM; in test [1], 61 nM.

B4: BJM1048 (antibody)
chain 1: not shown
chain 2: B3 light
chain 3: EIQLLESGGGLVQPGGSLRLSCAVSGFSITTTGYHWNWVRQAPGKGLEWVGYIYSSGSTSYNPSLKSRFTISRDTSKNTFYLQMNSLRAEDTAVYYCARGDWHYFDYWGQGTMVTVSSGGGGSGGGGSGGGGSGGGGSSSETTQPPSVSVSPGQTASITCSGEKLSDKYVHWYQQKPGQSPVMVIYENDRRPSGIPERFSGSNSGNTATLTISGTQAMDEADYFCQFWDSTNSAVFGGGTQLTVLDKTHTCPPCPAPELLGGPSVFLFPPKPKDTLMISRTPEVTCVVVDVSHEDPEVKFNWYVDGVEVHNAKTKPREEQYASTYRVVSVLTVLHQDWLNGKEYKCKVSNKALPAPIEKTISKAKGQPREPQVCTLPPSREEMTKNQVSLSCAVKGFYPSDIAVEWESNGQPENNYKTTPPVLDSDGSFFLVSKLTVDKSRWQQGNVFSCSVMHEALHNHYTQKSLSLSPGK
Take B4: the EC50 was 7.66 nM in the test with NKp30 on KHYG-1 NK cells and 8.29 nM in test [1].

B5: BJM1052 (anti-TRBC1/NKp30 bispecific antibody, N297A) (bispecific antibody)
heavy: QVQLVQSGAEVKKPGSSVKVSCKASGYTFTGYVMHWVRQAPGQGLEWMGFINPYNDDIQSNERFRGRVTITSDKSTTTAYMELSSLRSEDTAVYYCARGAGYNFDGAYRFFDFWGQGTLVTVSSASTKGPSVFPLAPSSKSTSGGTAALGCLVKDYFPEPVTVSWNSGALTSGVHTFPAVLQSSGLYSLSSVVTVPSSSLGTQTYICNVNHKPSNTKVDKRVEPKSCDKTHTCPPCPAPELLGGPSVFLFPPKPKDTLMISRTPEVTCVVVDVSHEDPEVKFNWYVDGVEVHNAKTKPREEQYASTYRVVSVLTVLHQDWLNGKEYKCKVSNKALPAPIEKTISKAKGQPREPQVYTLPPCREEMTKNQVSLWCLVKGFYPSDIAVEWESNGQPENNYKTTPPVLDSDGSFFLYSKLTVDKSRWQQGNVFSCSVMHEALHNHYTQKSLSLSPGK
light: B3 light
scFv: B3 scFv
For the molecule B5, the EC50 was determined as 6.61 nM in the test with NKp30 on KHYG-1 NK cells and 4.55 nM in test [1].

B6: BJM1038 (antibody)
chain 1: not shown
chain 2: B3 light
chain 3: B4 chain 3
For the molecule B6, the EC50 with NKp30 on KHYG-1 NK cells was 7.99 nM; in test [1] it was 60.5 nM.

B7: BJM0889 (single arm anti-TRBC1 antibody, N297A) (antibody, V domains shown)
VH: QVQLVQSGAEVKKPGSSVKVSCKASGYTFTGYVMHWVRQAPGQGLEWMGFINPYNDDIQSNERFRGRVTITSDKSTTTAYMELSSLRSEDTAVYYCARGAGYNFDGAYRFFDFWGQGTLVTVSS
VL: DVVMTQSPLSLPVTLGQPASISCRSSQRLVHSNGNTYLHWYQQRPGQSPRLLIYRVSNRFPGVPDRFSGSGSGTDFTLKISRVEAEDVGVYFCSQSTHVPYTFGGGTKVEIK
For the molecule B7, the response in test [1] was half-maximal at 5.26 nM (EC50).

B8: humanized JOVI.1 Fab BIM0460 (Fab, V domains shown)
VH: B7 VH
VL: B7 VL
B8 had an equilibrium dissociation constant (Kd) in test [2] of 9 nM.

B9: JOVI.1 Fab BIM0446 (Fab, V domains shown)
VH: EVRLQQSGPDLIKPGASVKMSCKASGYTFTGYVMHWVKQRPGQGLEWIGFINPYNDDIQSNERFRGKATLTSDKSSTTAYMELSSLTSEDSAVYYCARGAGYNFDGAYRFFDFWGQGTTLTVSS
VL: B7 VL with T14S, Q17D, P18Q, Q42L, R44K, R50K, V88L, V90I, V109L
In test [2], B9 yielded a dissociation constant Kd of 4 nM.
